In experiment [1] the target is recombinant human BMP-4 (human) (UniProt P12644). Kind of experiment: cell-based or functional assay.
Another experiment concerns the target recombinant human BMP-2 (human, UniProt P12643 283-396). The experiment in a line: cell-based or functional assay.

recombinant human BMP-4 (human), sequence (P12644 293-408 limits assumed): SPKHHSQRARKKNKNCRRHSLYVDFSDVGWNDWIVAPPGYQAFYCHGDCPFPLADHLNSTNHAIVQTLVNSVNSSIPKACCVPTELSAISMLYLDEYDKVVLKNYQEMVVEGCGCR
recombinant human BMP-2, sequence (P12643 283-396 limits assumed): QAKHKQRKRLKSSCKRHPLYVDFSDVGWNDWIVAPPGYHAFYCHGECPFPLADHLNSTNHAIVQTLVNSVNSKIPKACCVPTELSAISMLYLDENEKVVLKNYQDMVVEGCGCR

On to “bovine fetuin (from UniProt P12763 19-359)”, for which, in experiment [1], the alkaline phosphatase (ALP) activity in C2C12 cells; molar ratio of antagonist to BMP at which the BMP-induced increase is completely inhibited (molar ratio (bAHSG:rhBMP-4)) was greater than 56800 and the alkaline phosphatase (ALP) activity in C2C12 cells; molar ratio of antagonist to BMP at which the BMP-induced increase is completely inhibited (molar ratio (fetuin:rhBMP-4)) is greater than 55000.

B1: recombinant mouse Noggin (other, UniProt P97466 28-232, looked up)
chain: QHYLHIRPAPSDNLPLVDLIEHPDPIFDPKEKDLNETLLRSLLGGHYDPGFMATSPPEDRPGGGGGPAGGAEDLAELDQLLRQRPSGAMPSEIKGLEFSEGLAQGKKQRLSKKLRRKLQMWLWSQTFCPVLYAWNDLGSRFWPRYVKVGSCFSKRSCSVPEGMVCKPSKSVHLTVLRWRCQRRGGQRCGWIPIQYPIISECKCSC
Regarding B1, the “alkaline phosphatase (ALP) activity in C2C12 cells; molar ratio of antagonist to BMP at which the BMP-induced increase is completely inhibited” value with recombinant human BMP-2 is 1.1 molar ratio (rmNGN:rhBMP-2).

The values are drawn from patent US20110182911A1 (published 2011).
